Values joined by “and” are separate entries in the source; they are usually repeats but may differ in a detail not shown here. Equal values may be shown once. Read-outs that look alike come from different tables or passages of the source. Each block holds one molecule with its values, some of them ahead of it.
How the values were obtained:
[1] = biological target: CD200R (Mus musculus) (UniProt Q9ES57); details: cited from earlier work
[2] = biological target: CD200R (Mus musculus) (UniProt Q9ES57); details: cited from earlier work; remark: listed apart in the source
[3] = biological target: mouse CD200 (residues 1-232) CD4-Bio, mutant Q27K (mouse) (UniProt O54901); assay: SPR; BIAcore 3000, 25°C, HBS; wild-type and mutant CD200 CD4-Bio and CD4 control (about 650 RU each) held by OX68 mAb amine coupled to a CM5 chip; serial dilutions of soluble CD200R injected (KD from equilibrium binding), mutants tested with CD200R at 0.5 μM and given as percent of wild type
[4] = biological target: mouse CD200 extracellular region (residues 1-232) tagged with rat CD4 domains 3 and 4 and a biotinylation site, wild type (mouse) (UniProt O54901); assay: as above
[5] = biological target: mouse CD200RLa (residues 1-237) CD4-Bio, double mutant N63K K66T (mouse); assay: SPR; BIAcore 3000, 25°C; CD200R and wild-type and mutant CD200RLa CD4-Bio held by OX68 on a CM5 chip; increasing concentrations of CD200 injected; KDs by nonlinear curve fitting
[6] = biological target: T1, mouse CD200R (residues 1-232) CD4-Bio chimeric protein (mouse, UniProt Q9ES57 26-232); assay: SPR
T1 chain: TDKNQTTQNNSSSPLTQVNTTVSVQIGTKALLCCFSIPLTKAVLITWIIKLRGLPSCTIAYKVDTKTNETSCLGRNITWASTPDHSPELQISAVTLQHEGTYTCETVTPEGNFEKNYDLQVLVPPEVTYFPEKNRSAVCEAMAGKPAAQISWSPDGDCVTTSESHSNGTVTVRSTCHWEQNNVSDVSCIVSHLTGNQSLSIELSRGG

[7] = biological target: T2, mouse CD200RLa (residues 1-237) CD4-Bio, triple mutant N63K, K66T, and L114F (mouse); assay: SPR
T2 chain: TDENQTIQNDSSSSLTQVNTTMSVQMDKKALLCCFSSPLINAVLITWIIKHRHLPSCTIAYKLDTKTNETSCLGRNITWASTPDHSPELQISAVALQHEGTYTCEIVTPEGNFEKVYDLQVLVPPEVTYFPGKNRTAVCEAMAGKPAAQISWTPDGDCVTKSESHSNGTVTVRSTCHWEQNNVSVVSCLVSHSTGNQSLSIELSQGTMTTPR

[8] = biological target: T3, mouse CD200RLa (residues 1-237) CD4-Bio chimeric protein, wild type (mouse); assay: SPR
T3 chain: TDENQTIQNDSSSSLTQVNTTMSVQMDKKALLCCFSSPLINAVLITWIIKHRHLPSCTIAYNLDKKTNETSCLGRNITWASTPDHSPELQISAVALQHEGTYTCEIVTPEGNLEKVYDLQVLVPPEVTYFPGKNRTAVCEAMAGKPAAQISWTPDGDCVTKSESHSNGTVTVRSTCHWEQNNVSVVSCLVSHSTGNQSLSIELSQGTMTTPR

[9] = biological target: mouse CD200RLa (residues 1-237) CD4-Bio, mutant L114F (mouse, UniProt Q6XJV4 26-237, L114F); assay: SPR; BIAcore 3000, 25°C; CD200R and wild-type and mutant CD200RLa CD4-Bio held by OX68 on a CM5 chip; increasing concentrations of CD200 injected; KDs by nonlinear curve fitting; details: one partner purified

- percent of wild-type binding response [3]: 150%
- Kd [4]: 0.5 µM
Molecule: mouse CD200R extracellular region with C-terminal polyhistidine tag (receptor)

- Kd [5]: 18.4 µM
- Kd [6]: 0.6 µM
- Kd [7]: 1.1 µM and 0.9 µM
- Kd [8]: > 40 µM
- Kd [9]: 4.2 µM
B1: mouse CD200 extracellular region with C-terminal polyhistidine tag (ligand, UniProt O54901 31-232, looked up)
chain: QVEVVTQDERKALHTTASLRCSLKTSQEPLIVTWQKKKAVSPENMVTYSKTHGVVIQPAYKDRINVTELGLWNSSITFWNTTLEDEGCYMCLFNTFGSQKVSGTACLTLYVQPIVHLHYNYFEDHLNITCSATARPAPAISWKGTGTGIENSTESHFHSNGTTSVTSILRVKDPKTQVGKEVICQVLYLGNVIDYKQSLDKG
modifications: N-linked sugars cut back to N-acetyl-glucosamine by Endoglycosidase Hf (crystallised form); NH2 terminus presumably cyclized glutamine (pyroglutamic acid)
notes: signal peptide in the construct; mouse CD200, extracellular region (two Ig-like domains), residues 1-232 of NP_034948; the range counts on the precursor; Protein in the flow-through of the concanavalin A column was crystallised; protein eluted from the column was used as the soluble ligand in SPR; also called soluble CD200; recombinant CD200

Further lines, the molecule ahead of its results:

Molecule: CD200 (from UniProt P41217)
- Kd [1]: 7 µM

Molecule: CD200 (from UniProt O54901)
- Kd [2]: 4 µM

Source: article PMC3664923, “Structures of CD200/CD200 Receptor Family and Implications for Topology, Regulation, and Evolution” (Structure(London, England:1993), 2013)
